Assay results as given in US11932673.
Changes are numbered by the printed parent chain.

B1: KB_A01 (scFv, V domains shown)
VH: EVQLVESGGGLVRPGGSLRLSCAASGFTFSSYAMSWVRQAPGKGLEWVSAISGSGGSTYYADSVKGRFTISRDNTKNSLYLQMTSLRADDTAFYYCVKDFGPGYGTGWFDYWGPGTLVTVSS
VL: YLNWYQQKPGKAPKLLIYAAEVCPRILMRCKQDSDCLAGCVCGPNGFCGGTSGVPSRFSGSRSGTEFTLTISSLQPEDFATYYCQKVDDYPLTFGGGTKVEIKR
B2: KB_A02 (scFv, V domains shown)
VH: B1 VH
VL: AVNWYQQLPGKAPKLLIYAAAKCPRILMRCKQDSDCLAGCVCGPNGFCGGASGVSDRFSGSIDSSSNSASLTISGLKPEDEGDYYCQSYDSSNRWVFGGGTKVTVLG
B3: KB_A05 (scFv, V domains shown)
VH: B1 VH
VL: AVNWYQQLPGKAPKLLIYAADKCPRILMRCKQDSDCLAGCVCGPNGFCGGGSGIPERFSGSKSGTSASLAISGLRSEDEADYYCATWDDNLNGVVFGGGTKLTVLG
B4: KB_A06 (scFv, V domains shown)
VH: B1 VH
VL: AVNWYQQLPGKAPKLLIYAAVRCPRILMRCKQDSDCLAGCVCGPNGFCGTPSGIPERFSGSIDRSTNSASLTISGLKTEDEADYYCQSYDSSNLNWVFGGGTKLTVLG
B5: KB_A09 (scFv, V domains shown)
VH: B1 VH
VL: AVNWYQQLPGKAPKLLIYAAERCPRILMRCKQDSDCLAGCVCGPNGFCGTPSGVPDRFSGSIDTFSNSASLTISGLKTEDEADYYCQSYDSSHHWVFGGGTKLTVLG
B6: KB_A10 (scFv, V domains shown)
VH: B1 VH
VL: AVNWYQQLPGKAPKLLIYAAGGCPRILMRCKQDSDCLAGCVCGPNGFCGSNSGVPDRFSGSKSGNTASLTISGLQSEDEADYYCAAWDDSLSGVVFGGGTQLTVLG
B7: KB_A11 (scFv, V domains shown)
VH: B1 VH
VL: YLNWYQQKPGKAPKLLIYAAEICPRILMRCKQDSDCLAGCVCGPNGFCGPSSGIPARFSGSGYGTDFTLTINNIESEDAAYYFCLQHDNFPYTFGQGTKVEIKR
B8: KB_B01 (scFv, V domains shown)
VH: B1 VH
VL: AVNWYQQLPGKAPKLLIYAAAGCPRILMRCKQDSDCLAGCVCGPNGFCGTRSGVSDRFSGSKSGTSASLAISGLRSEDEADYYCAAWDDSLRAYVFGTGTKLTVLG
B9: KB_B02 (scFv, V domains shown)
VH: B1 VH
VL: B6 VL with G21V, S50T, N51G, V54I, D56E, S76A, A80G, V94P, Q101K
B10: KB_C07 (scFv, V domains shown)
VH: B1 VH
VL: B8 VL with A21V, T50S, R51A, A86S, A93G, L102V
B11: KB_C08 (scFv, V domains shown)
VH: B1 VH
VL: B3 VL with D21A, K22V, G50T, G51R, S68F, T86A, N90S, N92S
B12: KB_C09 (scFv, V domains shown)
VH: B1 VH
VL: B5 VL with E21G, T50G, P51G, T64S, F65S, K77R, T78A, H93N
B13: KB_C10 (scFv, V domains shown)
VH: B1 VH
VL: AVNWYQQLPGKAPKLLIYAAGPCPRILMRCKQDSDCLAGCVCGPNGFCGADSGVSDRFSGSKSGTSASLAITGLQAEDEGDYYCAAWDDSLNGLVFGGGTKVTVLG
B14: KB_A03 (scFv, V domains shown)
VH: B1 VH
VL: AVNWYQQLPGKAPKLLINAADRCPRILMRCKQDSDCLAGCVCGPNGFCGTNSGVPDRFSGSSSGNTASLTITGAQAEDEADYYCNSRDSSGNNWVFGGGTKVTVLG
B15: KB_B10 (scFv, V domains shown)
VH: B1 VH
VL: QSVLTQLPSVSEAPRQRVTITCGRAMCPRILMRCKQDSDCLAGCVCGPNGFCGTGNWYQQHPGKAPKLIIFDVSKRPSGVPDRFSASKSGNTASLTISGLQAEDEADYYCNSYTSSNTWVFGGGTQLTVLG
B16: KB_B11 (scFv, V domains shown)
VH: B1 VH
VL: TQPPSVSEAPRQRVTITCGSRPCPRILMRCKQDSDCLAGCVCGPNGFCGSHNWYQQLPGSSPTTVIYEDNQRPSGVPDRFSGSIDRSSNSASLTISGLKTEDEADYYCQSYDSSNHRVVFGGGTKLTVLG
B17: KB_B12 (scFv, V domains shown)
VH: B1 VH
VL: TQPPSVSEAPRQRVTITCGERPCPRILMRCKQDSDCLAGCVCGPNGFCGANNWYQQLPGSSPTTVIYEDNQRPSGVPDRFSGSIDSSSNSASLTISGLKTEDEADYYCQSYDSSNQVFGGGTKVTVLG
B18: KB_A12_B-gal_F02 (scFv, V domains shown)
VH: B1 VH
VL: AVNWYQQLPGKAPKLLIYAAGRCRTTSTIRRRCKQDSDCLAGCVCGPNGFCGANSGVSDRFSAAKSGTSASLAINGLRSEDEADYYCAAWDDSLNGYVFGTGTKLTVLG
B19: KB_A12_B-gal_G05 (scFv, V domains shown)
VH: B1 VH
VL: B18 VL with R24L, T25D, S27V, T28N, I29L
B20: KB_A12_B-gal_H03 (scFv, V domains shown)
VH: B1 VH
VL: B18 VL with R24N, T25Q, S27M, T28S, R32P
B21: KB_A12_B-gal_E04 (scFv, V domains shown)
VH: B1 VH
VL: B18 VL with R24L, T25A, S27T, T28S, R32P
B22: KB_A12_B-gal_E05 (scFv, V domains shown)
VH: B1 VH
VL: B18 VL with T25E, T28S, I29L, R32P
B23: KB_A12_B-gal_F09 (scFv, V domains shown)
VH: B1 VH
VL: B18 VL with R24I, T25A, T28H, R32H
B24: KB_A12_B-gal_F11 (scFv, V domains shown)
VH: B1 VH
VL: B18 VL with R24H, T25E, S27A, T28Q
B25: KB_A12_B-gal_H07 (scFv, V domains shown)
VH: B1 VH
VL: B18 VL with R24T, T25Q, S27A, T28L
B26: KB_A12_B-gal_H02 (scFv, V domains shown)
VH: B1 VH
VL: B18 VL with R24E, T25Q, T28V, R32H
B27: KB_A12_B-gal_F03 (scFv, V domains shown)
VH: B1 VH
VL: B18 VL with R24L, T25A, S27T, T28S, R32H
B28: KB_A12_B-gal_F07 (scFv, V domains shown)
VH: B1 VH
VL: B18 VL with S27A, T28N, I29V, R32H
B29: C09 (KnotBody with EET 5-3 framing) (scFv, V domains shown)
VH: B1 VH
VL: SEAPRQRVTITCGGKRCGPNGFCGSGSDGGVCPRILMRCKQDSDCLAGCTSNWYQQKPGQAPVLVVQDDSVRPSGIPERFSGSNSGNTATLTISRVEAGDGADYYCQVWDISSDLGVFGGGTKLTVLG
B30: E01 (KnotBody with EET 5-3 framing) (scFv, V domains shown)
VH: B1 VH
VL: AVNWYQQLPGKAPKLLIYAAGGCGPNGFCGSGSDGGVCPRILMRCKQDSDCLAGCGIHSGVSDRFSDSKSGTSASLAISGLQSEDEADYYCAAWDDSLNGYVFGTGTKLTVLG

The binders below were run against trypsin (assay: monoclonal phage TRF).

| Binder | Tryspin binding signal (FU) |
| --- | --- |
| B1 | 20200 FU |
| B2 | 183000 FU |
| B3 | 121000 FU |
| B4 | 24400 FU |
| B5 | 57700 FU |
| B6 | 38800 FU |
| B7 | 16400 FU |
| B8 | 57700 FU |
| B9 | 116000 FU |
| B10 | 43300 FU |
| B11 | 76800 FU |
| B12 | 89400 FU |
| B13 | 119000 FU |
| B14 | 28700 FU |
| B15 | 9270 FU |
| B16 | 10300 FU |
| B17 | 17400 FU |

These binders were tested against β-galactosidase (assay: monoclonal phage TRF).
Sequence of β-galactosidase (P00722 2-1024): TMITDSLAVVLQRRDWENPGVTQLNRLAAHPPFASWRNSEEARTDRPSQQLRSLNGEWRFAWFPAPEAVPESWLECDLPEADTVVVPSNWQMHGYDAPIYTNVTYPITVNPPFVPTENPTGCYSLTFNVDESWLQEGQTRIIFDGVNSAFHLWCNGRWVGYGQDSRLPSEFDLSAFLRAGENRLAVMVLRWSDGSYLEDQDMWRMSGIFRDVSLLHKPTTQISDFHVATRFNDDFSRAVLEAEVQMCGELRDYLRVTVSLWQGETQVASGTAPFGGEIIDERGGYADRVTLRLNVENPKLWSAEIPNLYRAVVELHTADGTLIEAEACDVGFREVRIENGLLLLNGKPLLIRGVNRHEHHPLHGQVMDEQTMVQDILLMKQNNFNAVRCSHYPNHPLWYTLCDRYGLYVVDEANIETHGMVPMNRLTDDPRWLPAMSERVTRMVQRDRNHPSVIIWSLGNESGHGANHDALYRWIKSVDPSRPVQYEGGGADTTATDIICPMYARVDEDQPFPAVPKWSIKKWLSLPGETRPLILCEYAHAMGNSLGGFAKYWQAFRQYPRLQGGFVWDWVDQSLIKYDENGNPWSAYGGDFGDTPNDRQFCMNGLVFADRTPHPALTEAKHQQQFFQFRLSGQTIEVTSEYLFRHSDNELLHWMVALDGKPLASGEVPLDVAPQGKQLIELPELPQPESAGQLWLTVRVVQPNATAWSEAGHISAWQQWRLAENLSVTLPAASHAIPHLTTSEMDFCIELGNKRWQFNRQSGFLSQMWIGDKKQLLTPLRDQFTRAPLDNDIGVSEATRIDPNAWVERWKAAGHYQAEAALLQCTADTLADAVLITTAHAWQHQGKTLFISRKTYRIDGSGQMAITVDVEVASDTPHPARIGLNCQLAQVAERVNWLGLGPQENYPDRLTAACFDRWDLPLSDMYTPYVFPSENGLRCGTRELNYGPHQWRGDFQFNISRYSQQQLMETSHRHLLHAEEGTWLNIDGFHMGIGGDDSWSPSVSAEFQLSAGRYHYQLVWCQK

| Binder | TRF signal |
| --- | --- |
| B18 | 476000 |
| B19 | 529000 |
| B20 | 518000 |
| B21 | 523000 |
| B22 | 312000 |
| B23 | 258000 |
| B24 | 531000 |
| B25 | 62000 |
| B26 | 501000 |
| B27 | 289000 |
| B28 | 246000 |

Each binder was assayed against trypsin (assay: Fab TRF, 0.6 ug/mL Fab).

| Binder | TRF signal |
| --- | --- |
| B1 | 2390 |
| B2 | 93800 |
| B3 | 46700 |
| B4 | 108000 |
| B5 | 21000 |
| B6 | 14600 |
| B7 | 48900 |
| B8 | 54800 |
| B9 | 2340 |
| B10 | 153000 |
| B11 | 51100 |
| B12 | 46800 |
| B13 | 41700 |

These binders were tested against trypsin (assay: Fab TRF, 2.4 ug/mL Fab).

| Binder | TRF signal |
| --- | --- |
| B1 | 16600 |
| B2 | 221000 |
| B3 | 65400 |
| B4 | 212000 |
| B5 | 84100 |
| B6 | 71900 |
| B7 | 141000 |
| B8 | 153000 |
| B9 | 15900 |
| B10 | 247000 |
| B11 | 131000 |
| B12 | 205000 |
| B13 | 146000 |

What follows are binders tested against trypsin (assay: monoclonal phage ELISA).

| Binder | ELISA signal |
| --- | --- |
| B29 | 9820 |
| B30 | 128000 |

Each binder was assayed against trypsin (assay: Fab TRF, 10 ug/mL Fab).

| Binder | TRF signal |
| --- | --- |
| B1 | 55600 |
| B2 | 255000 |
| B3 | 218000 |
| B4 | 242000 |
| B5 | 161000 |
| B6 | 68700 |
| B7 | 212000 |
| B8 | 257000 |
| B9 | 56600 |
| B10 | 276000 |
| B11 | 183000 |
| B12 | 289000 |
| B13 | 238000 |
